Measured values from patent publication US20220363738A1.

Target: T1, Calnexin (Cnx) on the surface of human cells (MDA-MB-231 ER-G2, Huh7, KP4) (human), P27824
T1 chain: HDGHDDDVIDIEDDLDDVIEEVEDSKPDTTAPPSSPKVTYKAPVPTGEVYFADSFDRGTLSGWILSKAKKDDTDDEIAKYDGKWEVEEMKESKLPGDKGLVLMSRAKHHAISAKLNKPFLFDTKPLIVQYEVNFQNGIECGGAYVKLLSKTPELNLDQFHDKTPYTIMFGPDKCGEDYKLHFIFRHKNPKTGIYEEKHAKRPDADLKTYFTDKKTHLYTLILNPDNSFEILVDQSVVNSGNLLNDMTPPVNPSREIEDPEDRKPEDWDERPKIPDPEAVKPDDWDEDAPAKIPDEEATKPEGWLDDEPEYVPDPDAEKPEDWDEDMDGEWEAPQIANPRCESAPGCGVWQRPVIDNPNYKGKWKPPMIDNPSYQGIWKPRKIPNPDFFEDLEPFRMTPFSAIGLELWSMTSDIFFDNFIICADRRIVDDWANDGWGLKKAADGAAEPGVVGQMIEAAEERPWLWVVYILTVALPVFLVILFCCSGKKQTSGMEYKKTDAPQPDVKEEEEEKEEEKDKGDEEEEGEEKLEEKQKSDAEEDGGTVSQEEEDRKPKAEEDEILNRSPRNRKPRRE
Assay: proximity ligation assay on live, intact cells, probes for Cnx and ERp57
Conditions: remark: other sources report otherwise

B1: ERp57 (PDIA3) on the surface of human MDA-MB-231 ER-G2 cells, P30101 25-505 (enzyme, UniProt P30101 25-505, looked up)
chain: SDVLELTDDNFESRISDTGSAGLMLVEFFAPWCGHCKRLAPEYEAAATRLKGIVPLAKVDCTANTNTCNKYGVSGYPTLKIFRDGEEAGAYDGPRTADGIVSHLKKQAGPASVPLRTEEEFKKFISDKDASIVGFFDDSFSEAHSEFLKAASNLRDNYRFAHTNVESLVNEYDDNGEGIILFRPSHLTNKFEDKTVAYTEQKMTSGKIKKFIQENIFGICPHMTEDNKDLIQGKDLLIAYYDVDYEKNAKGSNYWRNRVMMVAKKFLDAGHKLNFAVASRKTFSHELSDFGLESTAGEIPVVAIRTAKGEKFVMQEEFSRDGKALERFLQDYFDGNLKRYLKSEPIPESNDGPVKVVVAENFDEIVNNENKDVLIEFYAPWCGHCKNLEPKYKELGEKLSKDPNIVIAKMDATANDVPSPYEVRGFPTIYFSPANKKLNPKKYEGGRELSDFISYLQREATNPPVIQEEKPKKKKKAQEDL
modifications: here or on the partner: O-GalNAc (Tn) glycosylation at T50, T59, T66, T79, S81 and S86 after GALA activation
A proximity ligation assay signal, fold increase in MDA ER-G2 against wild-type MDA cells of 10 fold was found for B1 in this work.
